This note sets out measurements from patent US20080207449A1 (CROPDESIGN N V, published 2008).

The target in experiment [1] is T1, empty pGBT9 (GAL4 DNA-binding domain alone) (UniProt P04386 1-147).
T1 construct: empty bait vector, control for specificity; also called pBGT9
The experiment is described as follows: yeast two-hybrid, growth on His- minimal medium; both vectors empty; legend: -, no interaction. As for the experimental part:
Different combinations between bait (pGBTE2Fa226-356, pGBTE2Fb-Rb, or pGBTE2Fb 1-127, SEQ ID NO:207) and prey constructs were transformed into yeast cells and assayed for their ability to grow on His⁻ minimal media after 3 days of incubation at 30° C. Bait plasmids co-transformed with empty pAD-GAL424 and prey plasmids co-transformed with empty pGBT9 were assessed along as controls for the specificity of the interaction.
Different combinations between AtE2Fs bait and AtDPs prey constructs were tested for growth on His minimal media. −, no interaction; +, positive interaction; NT, not tested.

Experiment [2] deals with T2, pGBTE2Fa226-356: GAL4 DNA-binding domain fusion of AtE2Fa amino acids 226-356 (Arabidopsis).
T2 construct: also called E2F5 dimerisation domain; E2Fa (=E2F5) dimerization domain
The experiment is described as follows: yeast two-hybrid, growth on His- minimal medium; empty prey vector control; legend: -, no interaction.

The target of experiment [3] is pGBTE2Fb 1-127: GAL4 DNA-binding domain fusion of AtE2Fb amino acids 1-127 (Arabidopsis). Described as above.
Experiment [4] concerns the target T3, pGBT DPb 1-385: GAL4 DNA-binding domain fusion of AtDPb 1-385 (Arabidopsis thaliana).
T3 construct: its construction is not described
Described as above.

Experiment [5] addresses T4, pGBT DPa 1-292: GAL4 DNA-binding domain fusion of AtDPa 1-292 (Arabidopsis thaliana).
T4 construct: its construction is not described
Described as above.

In experiment [6] the target is T5, pGBTE2Fb-Rb: GAL4 DNA-binding domain fusion of AtE2Fb amino acids 1-385 (lacking the Rb-binding domain) (Arabidopsis).
T5 construct: also called E2F3 N-terminal; E2Fb (=E2F3) N-terminal domain
The description is as above.

Experiment [7] addresses T6, HA-tagged wild-type AtE2Fb, in vitro translated (Arabidopsis, UniProt Q9FV71 1-469).
T6 construct: wild-type (whole) protein; also called HA-AtE2Fb; E2F3
The experiment is described as follows: co-immunoprecipitation (anti-HA and anti-c-myc) of in vitro co-translated tagged proteins, SDS-PAGE autoradiography. The method, then:
(§1) In vitro transcription and translation experiments were performed using the TNT T7-coupled wheat germ extract kit (Promega) primed with appropriate plasmids for 90 min at 30° C. For immunoprecipitation, 10 μl of the total in vitro translated extract (50 μl) was diluted at 1:5 in Nonidet P40 buffer (50 mM Tris, pH 7.4, 150 mM NaCl, 1% Nonidet P40, 1 mM phenylmethylsulfonyl fluoride, 10 μg/ml leupeptin/aprotinin/pepstatin) and incubated for 2 h at 4° C. with anti-c-myc (9E10; BabCo) or anti-HA (16B12; BabCo) antibodies. Protein-A-Sepharose (40 μl 25% (v/v)) was added and incubated for 1 h at 4° C., then the beads were washed four times with Nonidet P40 buffer. Immune complexes were eluted with 10 μl […] sodium dodecyl sulfate (SDS) sample buffer and analyzed by 10% or 15% SDS-PAGE and by autoradiography.
(§2) Similar results were obtained by two-hybrid analysis (see Table 5 of Example 12). To test whether the structural requirements for heterodimerization of the AtDPs were similar to those of their animal homologs, several deletion mutants of AtDPa and AtDPb were constructed (for a schematic illustration, see FIGS. 52 and 53), tagged with the c-myc epitope (FIGS. 54 and 55, panels A). The interactions between the mutant AtDPs and AtE2Fb were analyzed in immunoprecipitation experiments with the specific anti-HA or anti-c-myc antibodies ([…], panels B and C, respectively). […]

Experiment [8] deals with T6, HA-tagged wild-type AtE2Fb, in vitro …. The experiment is described as follows: co-immunoprecipitation (anti-HA) of in vitro co-translated tagged proteins, SDS-PAGE autoradiography. As for the experimental part: as §1, §2

T6 sequence (Q9FV71 1-469, tags or fused parts left off): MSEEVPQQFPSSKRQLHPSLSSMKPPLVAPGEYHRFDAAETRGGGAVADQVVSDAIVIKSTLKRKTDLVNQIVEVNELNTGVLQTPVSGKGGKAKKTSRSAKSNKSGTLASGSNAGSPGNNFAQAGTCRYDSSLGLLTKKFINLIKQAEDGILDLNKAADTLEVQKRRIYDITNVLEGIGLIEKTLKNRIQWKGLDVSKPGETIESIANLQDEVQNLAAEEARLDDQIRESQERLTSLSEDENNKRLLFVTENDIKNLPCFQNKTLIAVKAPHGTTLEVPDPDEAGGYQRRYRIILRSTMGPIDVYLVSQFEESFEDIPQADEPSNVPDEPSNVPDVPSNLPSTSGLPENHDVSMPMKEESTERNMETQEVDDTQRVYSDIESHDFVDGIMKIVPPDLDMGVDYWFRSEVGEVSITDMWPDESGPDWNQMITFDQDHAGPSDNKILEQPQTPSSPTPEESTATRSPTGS

B1: empty pAD-GAL424 (GAL4 transactivation domain alone) (other, UniProt P04386 768-881, looked up)
chain: ANFNQSGNIADSSLSFTFTNSSNGPNLITTQTNSQALSQPIASSNVHDNFMNNEITASKIDDGNNSKPLSPGWTDQTAYNAFGITTGMFNTTTMDDVYNYLFDDEDTPPNPKKE
notes: empty prey vector, control for specificity
As for B1, the binding result in experiment [1], in experiment [2], in experiment [3], in experiment [4], in experiment [5] and in experiment [6] was “no binding” throughout.

B2: c-myc-tagged AtDPa 172-292, in vitro translated (other)
chain: EQKLISEEDLEQKLISEEDLSLESLMSRNQEMVVKTQGPAEGFTLPFILLETNPHAVVEIEISEDMQLVHLDFNSTPFSVHDDAYILKLMQEQKQEQNRVSSSSSTHHQSQHSSAHSSSSSCIASGTSGPVCWNSGSIDTR
notes: also called c-myc-AtDPa 172-292
As for B2, the binding result in experiment [7] is “no binding”.

B3: c-myc-tagged AtDPa 121-213, in vitro translated (other)
chain: EQKLISEEDLEQKLISEEDLIIARDKKEIRWKGLPITCKKDVEEVKMDRNKVMSSVQKKAAFLKELREKVSSLESLMSRNQEMVVKTQGPAEGFTLPFILLETNPHAVVEIEI
notes: also called c-myc-AtDPa 121-213; predicted dimerization domain of the AtDPa
Turning to B3, in experiment [8], the binding result was “no binding”.
